Test results: the supplement of paper PMC9876800

Test system: peptide library, one residue held at a place counted from the S/T acceptor
Test: relative phosphorylation of the sub-library (ratio to the mean residue at this position); higher = residue favoured
Method in brief: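 Each biotinylated degenerate peptide sub-library fixed one residue at one position around a central Ser/Thr and was incubated with a purified recombinant kinase, a human or orthologue construct, in 384-well plates. The 90 min reactions, under kinase-specific conditions, contained 50 μM peptide and 50 μM ATP spiked with γ-32P-ATP. Phosphorylation was read by phosphorimaging spots on streptavidin membranes and quantifying them by densitometry. Relative sub-library phosphorylation expresses each value as a ratio to the mean residue at that position.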

Sequence of WNK4, construct: aa1-444, human (Q96J92 1-444, looked up): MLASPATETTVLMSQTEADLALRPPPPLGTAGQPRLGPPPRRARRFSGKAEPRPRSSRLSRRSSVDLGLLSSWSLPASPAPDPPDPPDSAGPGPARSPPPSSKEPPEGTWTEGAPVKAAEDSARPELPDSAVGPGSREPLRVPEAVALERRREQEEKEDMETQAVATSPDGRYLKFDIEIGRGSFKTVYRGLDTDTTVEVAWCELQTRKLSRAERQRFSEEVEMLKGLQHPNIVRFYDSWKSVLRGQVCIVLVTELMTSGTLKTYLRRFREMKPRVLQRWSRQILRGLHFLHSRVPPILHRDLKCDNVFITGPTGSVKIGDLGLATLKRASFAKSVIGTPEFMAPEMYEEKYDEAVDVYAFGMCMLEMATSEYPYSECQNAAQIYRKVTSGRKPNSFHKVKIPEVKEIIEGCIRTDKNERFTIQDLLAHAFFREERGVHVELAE
Sequence of VRK1, construct: Full length, human (Q99986 whole entry, looked up): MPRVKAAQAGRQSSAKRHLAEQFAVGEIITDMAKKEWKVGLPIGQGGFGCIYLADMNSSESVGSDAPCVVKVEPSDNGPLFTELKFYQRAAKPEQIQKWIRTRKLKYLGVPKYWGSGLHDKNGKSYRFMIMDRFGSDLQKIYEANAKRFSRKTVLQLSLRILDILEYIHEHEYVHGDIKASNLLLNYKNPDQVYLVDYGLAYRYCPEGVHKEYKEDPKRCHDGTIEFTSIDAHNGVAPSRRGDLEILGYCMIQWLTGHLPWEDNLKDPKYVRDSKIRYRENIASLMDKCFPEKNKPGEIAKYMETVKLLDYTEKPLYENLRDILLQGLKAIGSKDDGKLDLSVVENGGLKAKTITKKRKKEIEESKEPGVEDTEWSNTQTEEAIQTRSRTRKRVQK

VRK1, construct: Full length, human (from UniProt Q99986)
relative phosphorylation
Conditions	at +1	at +2	at +3	at +4	at -1	at -2	at -3	at -4	at -5
A fixed	0.79	0.924	1.23	0.978	0.758	1.02	1.09	1.03	1.08
D fixed	0.363	0.406	0.525	0.96	0.661	0.802	0.824	0.886	0.865
E fixed	0.548	0.393	0.461	0.739	0.608	0.645	0.81	0.927	0.837
F fixed	0.972	0.746	0.877	1.01	1.04	0.8	0.902	1.02	1.01
G fixed	0.532	0.549	1.7	1.31	0.648	2.31	1.45	1.34	1.34
H fixed	0.951	0.83	1.79	1.03	1.17	1.21	1.15	1.15	1.01
I fixed	0.921	1.63	0.573	0.884	1.31	0.622	0.772	0.859	0.822
K fixed	1.4	1.45	0.815	0.87	0.984	0.759	1.02	0.865	0.88
L fixed	0.642	1.22	0.637	0.985	1.33	0.764	0.745	0.796	0.646
M fixed	1.11	1.67	0.865	1.06	1.06	0.946	0.862	0.916	0.835
N fixed	0.724	0.64	1.65	0.997	0.843	1.38	0.982	1.06	0.919
P fixed	0.305	0.423	0.456	0.688	0.738	1.25	1.28	1.02	1.21
Q fixed	1.4	1.34	0.988	0.952	0.977	1.19	1.03	0.962	1.01
R fixed	2.6	1.2	1.22	1.33	1.03	1.01	1.3	0.978	1.23
V fixed	1.39	2.09	0.723	0.75	1.53	0.616	0.848	0.97	1.02
W fixed	1.15	0.695	1.2	1.32	1.02	0.815	0.931	1.14	1.13
Y fixed	1.19	0.795	1.29	1.14	1.3	0.856	0.999	1.07	1.16
pThr fixed	0.771	0.821	0.698	0.728	0.751	0.781	0.938	0.862	0.958
pTyr fixed	0.752	0.601	0.942	1.37	1.03	0.723	1	0.967	1.05

CDC42BPA, construct: aa1-473, human (from UniProt Q5VT25)
relative phosphorylation
Conditions	at +1	at +2	at +3	at +4	at -1	at -2	at -3	at -4	at -5
A fixed	0.571	0.98	0.605	0.722	0.552	0.403	0.476	0.689	0.776
D fixed	0.475	0.764	0.723	0.799	0.668	0.306	0.342	0.53	0.483
E fixed	0.435	0.379	0.701	0.719	0.436	0.226	0.23	0.498	0.321
F fixed	0.802	1.2	1.15	1.1	0.645	0.519	0.424	0.758	0.814
G fixed	0.849	1.06	1.32	0.933	0.984	0.431	0.442	0.765	0.629
H fixed	0.961	1.06	1.27	1.17	1.27	1.25	1.3	1.22	1.04
I fixed	1.61	1.56	0.911	0.783	0.453	0.267	0.295	0.651	0.688
K fixed	0.961	1.01	1.56	1.21	2.71	2.5	2.6	2.28	3.39
L fixed	1.79	1.52	0.789	0.94	1.33	0.416	0.329	0.709	0.771
M fixed	1.45	0.918	0.745	0.872	1.01	0.507	0.354	0.803	0.632
N fixed	1.84	0.88	0.914	1.15	1.15	0.855	0.534	0.893	0.688
P fixed	0.35	1.1	0.983	1.2	1.28	0.482	0.496	0.995	0.666
Q fixed	1.18	0.681	1.3	1.06	1.13	0.973	0.75	0.847	0.911
R fixed	1.17	0.868	1.01	1.04	1.45	5.97	7.05	3.1	2.99
V fixed	0.898	1.08	0.702	0.777	0.529	0.292	0.282	0.641	0.586
W fixed	0.867	0.952	1.12	1.53	0.605	0.852	0.622	0.902	0.809
Y fixed	0.786	1.01	1.18	0.99	0.798	0.744	0.469	0.718	0.814
pThr fixed	0.636	0.97	0.873	1.38	0.283	0.304	0.369	0.547	0.552
pTyr fixed	1.24	0.795	0.785	1.13	0.396	0.353	0.378	0.441	0.391

WNK4, construct: aa1-444, human (from UniProt Q96J92)
relative phosphorylation
Conditions	at +1	at +2	at +3	at +4	at -1	at -2	at -3	at -4	at -5
A fixed	0.658	0.979	0.693	0.885	1.14	1.49	0.929	0.894	0.916
D fixed	0.249	0.57	0.62	0.54	0.287	0.305	0.389	0.579	0.489
E fixed	0.247	0.452	0.518	0.638	0.467	0.305	0.524	0.615	0.565
F fixed	1.13	0.977	2.1	1.3	0.788	0.821	0.748	0.864	1.21
G fixed	0.88	1.12	0.755	0.865	1.18	2.7	1.06	0.973	0.89
H fixed	0.813	0.973	1.35	1.12	1.05	1.54	1.16	1.21	1.21
I fixed	1.2	1.79	0.919	1.24	0.796	0.754	0.947	0.9	1.07
K fixed	0.918	0.872	1.06	1.29	1.66	1.03	1.64	1.6	1.27
L fixed	1.42	1.24	1.02	0.92	0.833	0.637	0.88	0.79	1.14
M fixed	1.96	1.31	1.04	1.1	1.58	0.708	1.02	0.924	0.986
N fixed	0.945	0.664	0.691	0.811	0.636	0.614	0.746	0.867	0.807
P fixed	0.242	0.318	0.514	0.713	0.452	1.31	0.93	0.674	0.628
Q fixed	1.17	0.522	0.565	0.673	0.952	0.573	0.741	0.88	0.639
R fixed	1.87	2.16	1.22	1.42	2.68	1.74	2.66	2.19	1.7
V fixed	0.973	1.16	0.848	0.969	0.812	0.972	0.959	0.877	0.891
W fixed	0.975	0.85	1.63	1.32	0.637	0.662	0.709	1.04	1.25
Y fixed	1.35	1.03	1.46	1.19	1.05	0.828	0.963	1.13	1.33
pThr fixed	0.386	0.407	0.388	0.617	0.444	0.683	0.809	0.732	0.731
pTyr fixed	0.565	0.537	0.612	0.674	0.727	0.471	0.708	0.527	0.764

DYRK1A, construct: aa147-185, human (from UniProt Q13627)
relative phosphorylation
Conditions	at +1	at +2	at +3	at +4	at -1	at -2	at -3	at -4	at -5
A fixed	0.555	0.855	0.76	0.819	1.27	1.63	0.864	0.989	0.962
D fixed	0.289	0.642	0.666	0.794	0.556	0.35	0.461	0.768	0.695
E fixed	0.286	0.461	0.598	0.768	0.59	0.348	0.372	0.879	0.674
F fixed	0.557	1.42	1.41	1.97	0.736	0.452	0.417	0.814	1.06
G fixed	0.692	1.03	1	1.09	0.983	0.826	1.08	1.06	1.1
H fixed	0.506	1.23	1.37	1.07	1.13	0.589	0.674	1.01	1.2
I fixed	0.488	1.4	0.957	1.01	0.726	0.605	0.387	0.928	1
K fixed	0.631	0.679	0.626	0.801	1.31	0.712	0.739	1.1	1.05
L fixed	0.463	1.6	1.36	1.04	0.887	0.785	0.467	0.936	0.92
M fixed	0.554	1.29	1.24	1.23	1.21	0.659	0.456	0.964	0.918
N fixed	0.471	0.79	0.789	0.893	0.849	0.641	0.5	0.871	0.876
P fixed	8.74	0.803	1.94	0.87	1.87	4.42	0.564	1.04	1.16
Q fixed	0.475	0.721	0.882	0.861	0.998	0.608	0.618	0.891	0.95
R fixed	0.783	0.811	0.725	0.714	1.46	2.63	8.09	2.1	1.73
V fixed	0.537	1.27	0.761	0.86	0.907	0.805	0.366	0.726	0.767
W fixed	0.54	0.941	1.03	1.23	0.708	0.486	0.497	0.934	0.814
Y fixed	0.432	1.06	0.877	0.976	0.815	0.454	0.444	1	1.13
pThr fixed	0.379	0.562	0.556	0.773	0.374	0.487	0.391	0.789	0.805
pTyr fixed	0.441	0.547	0.598	0.87	0.612	0.419	0.45	0.782	0.791
